Laboratory results taken from publication PMC4744555, “Pi Release Limits the Intrinsic and RNA-Stimulated ATPase Cycles of DEAD-Box Protein 5 (Dbp5)” (Journal of Molecular Biology, 2016).

Legend:
Dbp5 [1] = target: T1, Dbp5 (Saccharomyces cerevisiae, UniProt P20449); assay: transient Pi release lag phase, phosphate binding protein (PiBiP), stopped flow; assay type: biochemical; details: no RNA; 30 mM Hepes pH 7.5, 100 mM KCl, 2 mM MgCl2, 2 mM DTT, 25 °C; ATP dissociation constant from lag-phase dependence; also determined by mant-nucleotide competition
T1 construct: full-length, N-terminal 6xHis tag, expressed in E. coli
T1 sequence (P20449 1-482): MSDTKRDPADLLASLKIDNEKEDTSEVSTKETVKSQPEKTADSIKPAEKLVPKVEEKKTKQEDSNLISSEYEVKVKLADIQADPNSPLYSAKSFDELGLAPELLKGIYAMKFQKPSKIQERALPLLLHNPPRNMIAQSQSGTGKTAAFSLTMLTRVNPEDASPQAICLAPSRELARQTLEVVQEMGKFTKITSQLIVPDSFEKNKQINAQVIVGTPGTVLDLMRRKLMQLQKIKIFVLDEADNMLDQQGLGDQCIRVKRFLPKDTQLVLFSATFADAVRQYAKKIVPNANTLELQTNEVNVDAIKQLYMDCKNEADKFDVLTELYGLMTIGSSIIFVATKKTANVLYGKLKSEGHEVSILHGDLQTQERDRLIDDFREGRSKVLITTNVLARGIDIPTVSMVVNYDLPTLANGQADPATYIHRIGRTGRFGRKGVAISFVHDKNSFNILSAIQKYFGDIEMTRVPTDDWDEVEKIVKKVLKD
Description: transient Pi release lag phase, phosphate binding protein (PiBiP), stopped flow on Dbp5

Dbp5 [2] = target: T1, Dbp5; assay: FRET stopped flow, total fluorescence amplitude; assay type: binding
Description: FRET stopped flow, total fluorescence amplitude on Dbp5

Dbp5 [3] = target: T1, Dbp5; assay: kinetic competition with mantADP, FRET stopped flow; assay type: binding; details: no RNA; 30 mM Hepes pH 7.5, 100 mM KCl, 2 mM MgCl2, 2 mM DTT, 25 °C
Description: kinetic competition with mantADP, FRET stopped flow on Dbp5

[4] = substrate: Nc1ncnc2c1ncn2[C@@H]1O[C@H](CO[P@](=O)(O)O[P@](=O)(O)O[P@@](=O)(O)S)[C@@H](O)[C@H]1O; assay: NADH-coupled steady-state ATPase assay; assay type: biochemical, Saccharomyces cerevisiae; details: no RNA, 30 mM Hepes pH 7.5, 100 mM KCl, 2 mM MgCl2, 2 mM DTT, 25 °C
Description: (§1) NADH-coupled steady-state ATPase assay on Dbp5

[5] = substrate: Nc1ncnc2c1ncn2[C@@H]1O[C@H](COP(=O)(O)OP(=O)(O)OP(=O)(O)O)[C@@H](O)[C@H]1O; assay: NADH-coupled steady-state ATPase assay; assay type: biochemical, Saccharomyces cerevisiae; details: no RNA, 30 mM Hepes pH 7.5, 100 mM KCl, 2 mM MgCl2, 2 mM DTT, 25 °C
Description: as §1

Nc1ncnc2c1ncn2[C@@H]1O[C@H](COP(=O)(O)OP(=O)(O)OP(=O)(O)O)[C@@H](O)[C@H]1O [ATP]
Kd (Dbp5 [1]): 4 mM

CNc1ccccc1C(=O)O[C@H]1[C@@H](O)[C@H](n2cnc3c(N)ncnc32)O[C@@H]1CO[P@@](=O)(O)O[P@](=O)(O)OP(=O)(O)O [mantATP]
Kd (Dbp5 [2]): 1000 nM

Nc1ncnc2c1ncn2[C@@H]1O[C@H](COP(=O)(O)OP(=O)(O)O)[C@@H](O)[C@H]1O [ADP]
Kd (Dbp5 [3]): 360 µM

B1: Dbp5 (Saccharomyces cerevisiae S288C) (protein)
chain: MSDTKRDPADLLASLKIDNEKEDTSEVSTKETVKSQPEKTADSIKPAEKLVPKVEEKKTKQEDSNLISSEYEVKVKLADIQADPNSPLYSAKSFDELGLAPELLKGIYAMKFQKPSKIQERALPLLLHNPPRNMIAQSQSGTGKTAAFSLTMLTRVNPEDASPQAICLAPSRELARQTLEVVQEMGKFTKITSQLIVPDSFEKNKQINAQVIVGTPGTVLDLMRRKLMQLQKIKIFVLDEADNMLDQQGLGDQCIRVKRFLPKDTQLVLFSATFADAVRQYAKKIVPNANTLELQTNEVNVDAIKQLYMDCKNEADKFDVLTELYGLMTIGSSIIFVATKKTANVLYGKLKSEGHEVSILHGDLQTQERDRLIDDFREGRSKVLITTNVLARGIDIPTVSMVVNYDLPTLANGQADPATYIHRIGRTGRFGRKGVAISFVHDKNSFNILSAIQKYFGDIEMTRVPTDDWDEVEKIVKKVLKD
notes: full-length, N-terminal 6xHis tag, expressed in E. coli
Km [4]: 0.98 (± 0.06) mM | kcat [4]: 0.036 (± 0.001) s^− 1 | Km [5]: 1.7 (± 0.2) mM | kcat [5]: 0.043 (± 0.001) s^− 1
